In patent US20150203577A1 (Chugai, published 2015):
Residue numbers refer to the chain shown, from its start.

T1: mouse FcγRII (mouse, UniProt P08101 30-210)
T1 construct: Extracellular domain with C-terminal His tag; also called mFcγRII; mFcgRII
T1 sequence: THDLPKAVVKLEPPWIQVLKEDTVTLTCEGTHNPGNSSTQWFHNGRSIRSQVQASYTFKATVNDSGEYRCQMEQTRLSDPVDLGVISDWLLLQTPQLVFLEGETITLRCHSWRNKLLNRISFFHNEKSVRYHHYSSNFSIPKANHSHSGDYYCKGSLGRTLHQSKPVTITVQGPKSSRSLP

T2: mouse FcγRIII (mouse, UniProt P08508 31-215)
T2 construct: Extracellular domain with C-terminal His tag; also called mFcγRIII; mFcgRIII
T2 chain: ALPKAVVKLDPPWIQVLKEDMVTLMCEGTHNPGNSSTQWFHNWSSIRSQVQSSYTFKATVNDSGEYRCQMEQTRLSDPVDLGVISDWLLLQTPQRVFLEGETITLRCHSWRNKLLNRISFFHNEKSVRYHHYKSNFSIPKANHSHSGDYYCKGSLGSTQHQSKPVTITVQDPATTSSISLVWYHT

B1: MB817 (antibody, mouse IgG1, kappa)
heavy: QVQLQESGPGLVKPSETLSLTCAVSGHSISHDHAWSWVRQPPGEGLEWIGFISYSGITNYNPSLQGRVTISRDNSKNTLYLQMNSLRAEDTAVYYCARSLARTTAMDYWGEGTLVTVSSAKTTPPSVYPLAPGSAAQTNSMVTLGCLVKGYFPEPVTVTWNSGSLSSGVHTFPAVLQSDLYTLSSSVTVPSSTWPSETVTCNVAHPASSTKVDKKIVPRDCGCKPCICEPNEVELVFIFPPKPKDVLTITLTPKVTCVVVDISKDDPEVQFSWFVDDVEVHTAQTQPREEQFNSTFRSVSELPIMHQDWLNGKEFKCRVMSAGFPAPIEKTISKTKGRPKAPQVYTIPPPKEQMAKDKVSLTCMITDFFPEDITVEWQWNGQPAENYKNTQPIMDTDGSYFVYSKLNVQKSNWEAGNTFTCSVLHEGLHNHHTEKSLSHSPGK
light: not shown
notes: CH name; VH H237 + CH, L chain MRAL-k0; copies: 2 + 2
B2: MB829 (antibody, mouse IgG1, kappa)
heavy: B1 heavy with M320N, K330R
light: not shown
notes: as for B1
B3: MB820 (antibody, mouse IgG1, kappa)
heavy: B1 heavy with G323A, E329Y
light: not shown
notes: as for B1
B4: MB831 (antibody, mouse IgG1, kappa)
heavy: B1 heavy with M320N, G323A, P327F, K330R
light: not shown
notes: as for B1
B5: MB851 (antibody, mouse IgG1, kappa)
heavy: B1 heavy with M320N, A322D, K330R
light: not shown
notes: as for B1
B6: MB833 (antibody, mouse IgG1, kappa)
heavy: B1 heavy with M320N, G323A, P327Y, K330R
light: not shown
notes: as for B1
B7: MB828 (antibody, mouse IgG1, kappa)
heavy: B1 heavy with M320N, E329Y
light: not shown
notes: as for B1
B8: MB823 (antibody, mouse IgG1, kappa)
heavy: B1 heavy with M320N, A322D, G323A, P327F
light: not shown
notes: as for B1
B9: MB827 (antibody, mouse IgG1, kappa)
heavy: B1 heavy with M320N, P327Y
light: not shown
notes: as for B1
B10: MB832 (antibody, mouse IgG1, kappa)
heavy: B1 heavy with M320N, G323A, P327Y, E329Y
light: not shown
notes: as for B1
B11: MB852 (antibody, mouse IgG1, kappa)
heavy: B1 heavy with Q291L, M320D, A322D
light: not shown
notes: as for B1
B12: MB846 (antibody, mouse IgG1, kappa)
heavy: B1 heavy with K264D, M320N, A322D
light: not shown
notes: as for B1
B13: MB818 (antibody, mouse IgG1, kappa)
heavy: B1 heavy with G323A, P327F
light: not shown
notes: as for B1
B14: MB847 (antibody, mouse IgG1, kappa)
heavy: B1 heavy with Q291L, M320N, A322D
light: not shown
notes: as for B1
B15: MB825 (antibody, mouse IgG1, kappa)
heavy: B1 heavy with M320N, A322D, G323A, E329Y
light: not shown
notes: as for B1
B16: MB848 (antibody, mouse IgG1, kappa)
heavy: B1 heavy with M320D, A322D
light: not shown
notes: as for B1
B17: MB821 (antibody, mouse IgG1, kappa)
heavy: B1 heavy with G323A, K330R
light: not shown
notes: as for B1
B18: MB824 (antibody, mouse IgG1, kappa)
heavy: B1 heavy with M320N, A322D, G323A, P327Y
light: not shown
notes: as for B1
B19: MB819 (antibody, mouse IgG1, kappa)
heavy: B1 heavy with G323A, P327Y
light: not shown
notes: as for B1
B20: MB854 (antibody, mouse IgG1, kappa)
heavy: B1 heavy with Q291L, M320N, A322D, E329Y
light: not shown
notes: as for B1
B21: MB853 (antibody, mouse IgG1, kappa)
heavy: B1 heavy with Q291L, M320N, A322D, P327Y
light: not shown
notes: as for B1
B22: MB822 (antibody, mouse IgG1, kappa)
heavy: B1 heavy with M320N, A322D
light: not shown
notes: as for B1
B23: MB850 (antibody, mouse IgG1, kappa)
heavy: B1 heavy with M320N, A322D, E329Y
light: not shown
notes: as for B1
B24: MB835 (antibody, mouse IgG1, kappa)
heavy: B1 heavy with K264D, M320N, G323A
light: not shown
notes: as for B1
B25: MB826 (antibody, mouse IgG1, kappa)
heavy: B1 heavy with M320N, P327F
light: not shown
notes: as for B1
B26: MB834 (antibody, mouse IgG1, kappa)
heavy: B1 heavy with M320N, G323A, E329Y, K330R
light: not shown
notes: as for B1
B27: MB849 (antibody, mouse IgG1, kappa)
heavy: B1 heavy with M320N, A322D, P327Y
light: not shown
notes: as for B1
B28: MB830 (antibody, mouse IgG1, kappa)
heavy: B1 heavy with M320N, G323A, P327F, E329Y
light: not shown
notes: as for B1

Each binder was assayed against T1, mouse FcγRII (assay: SPR (Biacore T200); KD of H237-MB630/MRAL-k0 / KD of variant).

Relative mFcγRII-binding activity (MB630 = 1) | Binder
2.17 fold | B1
2.57 fold | B2
1.49 fold | B3
1.7 fold | B4
4.13 fold | B5
1.92 fold | B6
2.16 fold | B7
1.9 fold | B8
1.63 fold | B9
0.4 fold | B10
5.76 fold | B11
6.8 fold | B12
1.19 fold | B13
4.12 fold | B14
2.16 fold | B15
4.33 fold | B16
1.86 fold | B17
2.13 fold | B18
1.38 fold | B19
4.77 fold | B20
3.31 fold | B21
3.33 fold | B22
4.12 fold | B23
2 fold | B24
1.41 fold | B25
1.29 fold | B26
2.97 fold | B27
0.37 fold | B28

Biological target: T2, mouse FcγRIII
Experiment: as above

Relative mFcγRIII-binding activity (MB630 = 1) | Binder
2.27 fold | B1
2.75 fold | B2
1.43 fold | B3
1.71 fold | B4
5.23 fold | B5
1.94 fold | B6
2.14 fold | B7
2.13 fold | B8
1.64 fold | B9
0.4 fold | B10
10 fold | B11
11.6 fold | B12
1.25 fold | B13
7.24 fold | B14
2.17 fold | B15
5 fold | B16
1.96 fold | B17
2.45 fold | B18
1.4 fold | B19
6.84 fold | B20
6.2 fold | B21
4.02 fold | B22
4.3 fold | B23
3.05 fold | B24
1.48 fold | B25
1.25 fold | B26
3.54 fold | B27
0.36 fold | B28

What follows are binders tested against T1, mouse FcγRII (assay: SPR (Biacore T200); KD of H237-mIgG1/MRAL-k0 / KD of variant).

relative mFcγRII-binding activity (mIgG1 = 1) | Binder
28.5 fold | B1
33.8 fold | B2
19.5 fold | B3
22.3 fold | B4
43.8 fold | B5
25.3 fold | B6
28.4 fold | B7
25 fold | B8
21.5 fold | B9
5.2 fold | B10
61 fold | B11
72.1 fold | B12
15.6 fold | B13
43.7 fold | B14
28.4 fold | B15
45.8 fold | B16
24.4 fold | B17
28 fold | B18
18.1 fold | B19
50.6 fold | B20
35 fold | B21
43.8 fold | B22
43.7 fold | B23
26.3 fold | B24
18.5 fold | B25
17 fold | B26
31.4 fold | B27
4.8 fold | B28

Biological target: T2, mouse FcγRIII
Experiment: as above

relative mFcγRIII-binding activity (mIgG1 = 1) | Binder
0.52 fold | B1
0.63 fold | B2
0.33 fold | B3
0.39 fold | B4
0.96 fold | B5
0.45 fold | B6
0.49 fold | B7
0.49 fold | B8
0.38 fold | B9
0.09 fold | B10
1.83 fold | B11
2.12 fold | B12
0.29 fold | B13
1.33 fold | B14
0.5 fold | B15
0.92 fold | B16
0.45 fold | B17
0.56 fold | B18
0.32 fold | B19
1.25 fold | B20
1.13 fold | B21
0.93 fold | B22
0.79 fold | B23
0.7 fold | B24
0.34 fold | B25
0.29 fold | B26
0.65 fold | B27
0.08 fold | B28
